Measured values from US11945858B2, “Antibodies and antibody fragments against HNAV1.7 channel and their use in pain and cancer indications” (NATIONAL RESEARCH COUNCIL OF CANADA, priority 2018, dated 2024).
Entries after “also recorded” stand apart in the source; their conditions may differ.

Key:
[1] = test system: CFA-induced thermal hyperalgesia; assay: Hargreaves Model of Hyperalgesia in rats; format: in vivo, rat; settings: for Percentage of maximum possible effect (% MPE): 4 h (FIG. 27B)
Protocol: Hargreaves Model of Hyperalgesia in rats. Rats aged 4-6 weeks (weight range, 180-220 g) were used for intraplantar (ipl) administrations of various antibodies and evaluation of their efficacy in the Hargreaves model of inflammatory pain. Chronic inflammatory pain is induced by injecting a low volume (50 μl) of complete Freund's adjuvant (CFA; heat-killed M. tuberculosis—Sigma, St. Louis, Mo.—suspended in oil:saline 2:1 emulsion) into the right hind paw. The paw withdrawal latency in response to the application of a radiant stimulus onto the plantar surface of both right and left paw was measured using the plantar Analgesia Meter equipment for paw stimulation (IITC Life Science, Woodland Hills, Calif.). The time taken by the animal to respond by licking or flicking its paw is interpreted as positive response (paw withdrawal latency). After 48 h of the CFA injection, the baseline for latency paw withdrawal was measured and the mAbs tested. […] A cut-off time (20 sec) is established at the end of which the heat source shuts off automatically to avoid tissue damage. Animals were kept (randomized) one per cage and staff performing pain experiments are blinded to the content of injectable compounds. Percentage of maximum possible effect (% MPE) was calculated using the formula % MPE=(Test Latency−Baseline Latency)×100/(Cut-off−Baseline Latency).

[2] = test system: VHH FC5; assay: Phage ELISA on VHH FC5; format: binding
VHH FC5, sequence (as listed by the source): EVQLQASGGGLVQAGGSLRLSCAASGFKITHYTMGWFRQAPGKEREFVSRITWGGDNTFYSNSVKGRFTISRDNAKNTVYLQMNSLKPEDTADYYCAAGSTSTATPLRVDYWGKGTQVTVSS
Protocol: FIG. 25A Phages were rescued from individual colonies, selected from the fourth round of panning and grown overnight at 37° C. Wells of a Nunc microtiter plate were coated with FC5DIE3IR and FC5 proteins at 5 μg/ml in PBS. After blocking, 100 μl of phage supernatants (from clones A-H) were added to the respective wells followed by incubation for 1 h at room temperature and addition of anti-M13-HRP conjugate. Binding was detected with TMB substrate and A450 was measured using an ELISA plate reader. As shown, six positive clones (DI-A, DI-B, DI-C, DI-D, DI-E and DI-H), having a signal of at least 3× background, were identified by phage-ELISA.
Additional rounds (up to 3) of panning were performed by coating the ELISA plate with the same proteins and using the amplified phages after each round of panning as described above. After four rounds of panning, 77 randomly picked colonies were grown and subjected to monoclonal phage ELISA screening as described previously (Arbabi-Ghahroudi et al., 2009) except that 5 μg/ml of FC5DIE3IR and FC5 VHH (the negative control) were coated onto a microtiter plate. All positive clones specifically binding to FC5DIE3IR were sequenced and unique VHH sequences were selected for sub-cloning, large-scale expression, and purification. A total of 6 VHHs specific to FC5DIE3IR were isolated. […]

[3] = test system: OD1-evoked Nav1.7-mediated spontaneous pain behaviours; format: in vivo, mouse; settings: 50 μg VHH
[4] = biological target: T1, FC5DIE3IR (Homo sapiens, UniProt Q15858); assay: Surface Plasmon Resonance for VHH antibodies, immobilized FC5DIE3IR; format: binding; settings: SPR
T1 construct: The supernatant was collected and loaded on a 5 ml MabSelect™ SuRe™ column; made in house; host or cells: CHO-3E7 (transient, pTT5 vector), purified from supernatant
Protocol: (§1) Surface Plasmon Resonance for VHH antibodies. For SPR experiments, IMAC-purified VHHs DI-D, DI-4, DI-16, DI-28 and DI-48 were passed through a Superdex 75 (GE Healthcare) column for SEC purification in HBS-EP+buffer (10 mM HEPES, pH 7.4, containing 150 mM NaCl, 3 mM EDTA and 0.05% P20), connected to an AKTAPurifier (GE Healthcare) at a flow rate of 1 ml/min. Monomeric VHH fractions were collected and protein concentration determined by measuring A280 measurement. Using a Biacore T200 instrument (GE Healthcare), approximately 500-1000 RUs of FC5DIE3IR, FC5 and an irrelevant VHH (2A3-H4) were immobilized on a CM5 Series S sensor chip (GE Healthcare) at pH 4.0 using standard amine coupling according to the manufacturer's instructions (GE Healthcare). […] Surfaces were regenerated by washing with a 120 s pulse of 10 mM glycine pH 1.5. Data were analyzed with Biacore T200 Software v 3.0 and affinities determined using steady state binding or a 1:1 binding model.

[5] = biological target: hNav1.7 channels (Homo sapiens, UniProt Q15858, W1161R); assay: Patch-clamp whole-cell recordings in hNav1.7-HEK293 cells; format: cell-based
[6] = test system: 2A3-H4; assay: Surface Plasmon Resonance for VHH antibodies, immobilized irrelevant VHH 2A3-H4; format: binding; settings: SPR; 25 C
Protocol: as §1

[7] = test system: FC5DIIIDIR (extracellular loop DIII of the hNav1.7 channels grafted to FC5 scaffold); assay: Phage ELISA on FC5DIIIDIR; format: binding, human
[8] = test system: FC5; assay: Surface Plasmon Resonance for VHH antibodies, immobilized FC5; format: binding; settings: SPR; 25 C
FC5, sequence (as listed by the source): as above
Protocol: as §1

[9] = −20 mV, after antibody application (1 μM)

B1: DI-D: anti-hNav1.7 VHH from phage-displayed LAC-M naïve library; SEQ ID NO: 38 (protein)
VHH: QVKLEESGGGLVQPGGSLKLSCVASGFAFSSAPMDWVRKAPGKDVEWLSTIESDQDHTIYYANSVKGRFTISRDDVQNILYLQMNDLKIEDTATYYCQKRGEKKTRGQGTQVTVSS
modifications: DI-D
Latency paw withdrawal ([1]; 50 μg intraplantar, 4 h): 8.36 ± 0.53 s | Percentage of maximum possible effect (% MPE) ([1]; 50 μg intraplantar): 21.59%±4.05 | Latency paw withdrawal ([1]; 100 μg intraplantar, 1 h): 13.35 ± 0.44 s | Latency paw withdrawal ([1]; 100 μg intraplantar, 2 h): 11.40 ± 0.69 s | Latency paw withdrawal ([1]; 100 μg intraplantar, 4 h): 11.78 ± 0.50 s | Percentage of maximum possible effect (% MPE) ([1]; 100 μg intraplantar): 45.19%±4.40 | Binding of the phage to VHH FC5 (in words) [2]: did not bind | Effect on spontaneous pain behaviours evoked by OD1 (in words) [3]: reversed spontaneous pain behaviours | Time spent in pain behaviors (saline plus OD1 = 100%) ([3]; injected 60 minutes prior to OD1, 20 min after the injection): 44.33%±8.8 | Binding to immobilized FC5DIE3IR (comment, in words) [4]: clear binding; also recorded: binds specifically | Reduction currents (%) ([5]; 1 μM): 11.7%±5.8 | Time constant of the block of the hNav1.7 currents (effect onset) ([5]; 1 μM): 113 ± 11 s | Voltage-dependence of activation (shift V1/2 activation) ([5]; 1 μM): −6.1±1.0 mV | Voltage-dependence of the steady-state fast inactivation (shift V1/2 inactivation) ([5]; 1 μM): −6.8±1.5 mV | hNav1.7 current remaining, % of control ([5]; 1 μM, 500 sec recording (FIG. 26B)): approx. 91% | Onset time of the effect (exponential fit of the current decay, T) ([5]; 1 μM, single time-course recording of the figure): 150 s | Reduction currents (%) ([5]; 2 μM): 15.0%±6.9 | Time constant of the block of the hNav1.7 currents (effect onset) ([5]; 2 μM): 200 ± 45 s | Reduction currents (%) ([5]; 3 μM): 24.1%±5.6 | Effect on hNav1.7 currents (in words) ([5]; example recordings, 1-3 μM): reduced hNav1.7 current in a dose dependent manner | Efficacy (degree of maximum inhibition) ([5]; resting/closed state): 27.4±5. % | Fast inactivation (time constant) [5, 9]: 1.29 ± 0.30 ms | Time-to-peak [5, 9]: 1.64 ± 0.37 ms | Binding to immobilized 2A3-H4 (comment, in words) [6]: No binding | Binding of the phage to FC5DIIIDIR (in words) [7]: did not bind | Binding to immobilized FC5 (comment, in words) [8]: trace amounts of binding; also recorded: Weak/residual binding
